We go through two proteins from paper PMC4737671 (International Journal of Biological Sciences, 2016).

The series concerns the molecule itself. Kind of series: atomic force microscopy.

B1: BRCA1 281-701aa (domain or fragment, human, UniProt P38398 281-701, looked up)
chain: SSLQHENSSLLLTKDRMNVEKAEFCNKSKQPGLARSQHNRWAGSKETCNDRRTPSTEKKVDLNADPLCERKEWNKQKLPCSENPRDTEDVPWITLNSSIQKVNEWFSRSDELLGSDDSHDGESESNAKVADVLDVLNEVDEYSGSSEKIDLLASDPHEALICKSERVHSKSVESNIEDKIFGKTYRKKASLPNLSHVTENLIIGAFVTEPQIIQERPLTNKLKRKRRPTSGLHPEDFIKKADLAVQKTPEMINQGTNQTEQNGQVMNITNSGHENKTKGDSIQNEKNPNPIESLEKESAFKTKAEPISSSISNMELELNIHNSKAPKKNRLRRKSSTRHIHALELVVSRNLSPPNCTELQIDSCSSSEEIKKKKYNQMPVRHSRNLQLMEGKEPATGAKKSNKPNEQTSKRHDSDTFPELK
With B1, the binding result was “binds”.

B2: BRCA1 fragment 421-988aa (domain or fragment, human, UniProt P38398 421-988, looked up)
chain: EYSGSSEKIDLLASDPHEALICKSERVHSKSVESNIEDKIFGKTYRKKASLPNLSHVTENLIIGAFVTEPQIIQERPLTNKLKRKRRPTSGLHPEDFIKKADLAVQKTPEMINQGTNQTEQNGQVMNITNSGHENKTKGDSIQNEKNPNPIESLEKESAFKTKAEPISSSISNMELELNIHNSKAPKKNRLRRKSSTRHIHALELVVSRNLSPPNCTELQIDSCSSSEEIKKKKYNQMPVRHSRNLQLMEGKEPATGAKKSNKPNEQTSKRHDSDTFPELKLTNAPGSFTKCSNTSELKEFVNPSLPREEKEEKLETVKVSNNAEDPKDLMLSGERVLQTERSVESSSISLVPGTDYGTQESISLLEVSTLGKAKTEPNKCVSQCAAFENPKGLIHGCSKDNRNDTEGFKYPLGHEVNHSRETSIEMEESELDAQYLQNTFKVSKRQSFAPFSNPGNAEEECATFSAHSGSLKKQSPKVTFECEQKEENQGKNESNIKPVQTVNITAGFPVVGQKDKPVDNAKCSIKGGSRFCLSSQFRGNETGLITPNKHGLLQNPYRIPPLFPIKS
What is called stoichiometry N is the number of molecules, sites or subunits per partner or assembly. Regarding B2, the “stoichiometry N” value worked out at 2.
